Data as given in the supplement of paper PMC3353916.
± gives the standard deviation of the averaged measurements.

Test system: Sindbis virus TE/5'2J-GFP
Assay: percent infected (GFP+ in RFP+ ISG-expressing cells); higher = more infection (less antiviral activity)
Protocol: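 Confirmatory testing of 87 ISGs. Triplicate wells of BHK/HA-Zeo (control) or BHK/NZAP-Zeo (ZAP) cells were transduced with lentiviruses co-expressing a human ISG plus TagRFP, then infected 48 h later with SINV TE/5'2J-GFP (moi 5). The % GFP+ cells among RFP+ cells was measured by flow cytometry at 8 h post infection. Fluc lentivirus served as control. Three independent experiments.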

[1] = experiment: confirmatory screen 1, BHK/HA-Zeo (control)
[2] = experiment: confirmatory screen 1, BHK/NZAP-Zeo (ZAP)
[3] = experiment: confirmatory screen 2, BHK/HA-Zeo (control)
[4] = experiment: confirmatory screen 2, BHK/NZAP-Zeo (ZAP)
[5] = experiment: confirmatory screen 3, BHK/HA-Zeo (control)
[6] = experiment: confirmatory screen 3, BHK/NZAP-Zeo (ZAP)
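Further: Interferon-defective BHK-21 derivatives, ZAP line overexpressing the rat ZAP N-terminal zinc finger domain fused to Zeocin resistance, GFP scored within live singlet TagRFP+ cells.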

| Sequence | percent infected [1] | percent infected [2] | percent infected [3] | percent infected [4] | percent infected [5] | percent infected [6] |
| --- | --- | --- | --- | --- | --- | --- |
| MHQSLTQQRSSDMSLPDSMGAFNRRKRNSIYVTVTLLIVSVLILTVGLAATTRTQNVTVGGYYPGVILGFGSFLGIIGSNLIENKRQMLVASIVFISFGVIAAFCCAIVDGVFAARHIDLKPLYANRCHYVPKTSQKEAEEVISSSTKNSPSTRVMRNLTQAAREVNCPHLSREFCTPRIRGNTCFCCDLYNCGNRVEITGGYYEYIDVSSCQDIIHLYHLLWSATILNIVGLFLGIITAAVLGGFKDMNPTLPALNCSVENTHPTVSYYAHPQVASYNTYYHSPPHLPPYSAYDFQHSGVFPSSPPSGLSDEPQSASPSPSYMWSSSAPPRYSPPYYPPFEKPPPYSP [FAM70A] | 97.01 ± 0.45% | 75.9 ± 2.9% | 96.07 ± 0.48% | 95.55 ± 0.12% | 94.9 ± 0.5% | 94.05 ± 0.37% |
| MIAAQAKLVYQLNKYYTERCQARKAAIAKTIREVCKVVSDVLKEVEVQEPRFISSLSEIDARYEGLEVISPTEFEVVLYLNQMGVFNFVDDGSLPGCAVLKLSDGRKRSMSLWVEFITASGYLSARKIRSRFQTLVAQAVDKCSYRDVVKMIADTSEVKLRIRERYVVQITPAFKCTGIWPRSAAQWPMPHIPWPGPNRVAEVKAEGFNLLSKECYSLTGKQSSAESDAWVLQFGEAENRLLMGGCRNKCLSVLKTLRDRHLELPGQPLNNYHMKTLLLYECEKHPRETDWDESCLGDRLNGILLQLISCLQCRRCPHYFLPNLDLFQGKPHSALESAAKQTWRLAREILTNPKSLDKL [MAB21L2] | 77.4 ± 7.3% | 48.7 ± 1.9% | 93.37 ± 0.82% | 93.8 ± 0.28% | 85.5 ± 3.3% | 86.9 ± 0.91% |
| MKEDCLPSSHVPISDSKSIQKSELLGLLKTYNCYHEGKSFQLRHREEEGTLIIEGLLNIAWGLRRPIRLQMQDDREQVHLPSTSWMPRRPSCPLKEPSPQNGNITAQGPSIQPVHKAESSTDSSGPLEEAEEAPQLMRTKSDASCMSQRRPKCRAPGEAQRIRRHRFSINGHFYNHKTSVFTPAYGSVTNVRVNSTMTTLQVLTLLLNKFRVEDGPSEFALYIVHESGERTKLKDCEYPLISRILHGPCEKIARIFLMEADLGVEVPHEVAQYIKFEMPVLDSFVEKLKEEEEREIIKLTMKFQALRLTMLQRLEQLVEAK [RASSF4] | 80.1 ± 2.3% | 56.3 ± 1.3% | 94.73 ± 0.66% | 94.93 ± 0.39% | 89.1 ± 0.9% | 89.9 ± 1.3% |
| MKKSGVLFLLGIILLVLIGVQGTPVVRKGRCSCISTNQGTIHLQSLKDLKQFAPSPSCEKIEIIATLKNGVQTCLNPDSADVKELIKKWEKQVSQKKKQKNGKKHQKKKVLKVRKSQRSRQKKTT [CXCL9] | 61.9 ± 6.1% | 44.7 ± 2.9% | 88.7 ± 2.5% | 91.55 ± 0.18% | 83.1 ± 1.5% | 82 ± 1.1% |
| MKLRSSHNASKTLNANNMETLIECQSEGDIKEHPLLASCESEDSICQLIEVKKRKKVLSWPFLMRRLSPASDFSGALETDLKASLFDQPLSIICGDSDTLPRPIQDILTILCLKGPSTEGIFRRAANEKARKELKEELNSGDAVDLERLPVHLLAVVFKDFLRSIPRKLLSSDLFEEWMGALEMQDEEDRIEALKQVADKLPRPNLLLLKHLVYVLHLISKNSEVNRMDSSNLAICIGPNMLTLENDQSLSFEAQKDLNNKVKTLVEFLIDNCFEIFGENIPVHSSITSDDSLEHTDSSDVSTLQNDSAYDSNDPDVESNSSSGISSPSRQPQVPMATAAGLDSAGPQDAREVSPEPIVSTVARLKSSLAQPDRRYSEPSMPSSQECLESRVTNQTLTKSEGDFPVPRVGSRLESEEAEDPFPEEVFPAVQGKTKRPVDLKIKNLAPGSVLPRALVLKAFSSSSLDASSDSSPVASPSSPKRNFFSRHQSFTTKTEKGKPSREIKKHSMSFTFAPHKKVLTKNLSAGSGKSQDFTRDHVPRGVRKESQLAGRIVQENGCETHNQTARGFCLRPHALSVDDVFQGADWERPGSPPSYEEAMQGPAARLVASESQTVGSMTVGSMRARMLEAHCLLPPLPPAHHVEDSRHRGSKEPLPGHGLSPLPERWKQSRTVHASGDSLGHVSGPGRPELLPLRTVSESVQRNKRDCLVRRCSQPVFEADQFQYAKESYI [TAGAP] | 91.3 ± 3% | 64.8 ± 2.3% | 86.1 ± 4.6% | 92.53 ± 0.75% | 85 ± 2% | 89.95 ± 0.44% |
| MKTFTWTLGVLFFLLVDTGHCRGGQFKIKKINQRRYPRATDGKEEAKKCAYTFLVPEQRITGPICVNTKGQDASTIKDMITRMDLENLKDVLSRQKREIDVLQLVVDVDGNIVNEVKLLRKESRNMNSRVTQLYMQLLHEIIRKRDNSLELSQLENKILNVTTEMLKMATRYRELEVKYASLTDLVNNQSVMITLLEEQCLRIFSRQDTHVSPPLVQVVPQHIPNSQQYTPGLLGGNEIQRDPGYPRDLMPPPDLATSPTKSPFKIPPVTFINEGPFKDCQQAKEAGHSVSGIYMIKPENSNGPMQLWCENSLDPGGWTVIQKRTDGSVNFFRNWENYKKGFGNIDGEYWLGLENIYMLSNQDNYKLLIELEDWSDKKVYAEYSSFRLEPESEFYRLRLGTYQGNAGDSMMWHNGKQFTTLDRDKDMYAGNCAHFHKGGWWYNACAHSNLNGVWYRGGHYRSKHQDGIFWAEYRGGSYSLRAVQMMIKPID [ANGPTL1] | 94.8 ± 1.7% | 76.2 ± 1.6% | 95.66 ± 0.28% | 94.3 ± 2.2% | 94.73 ± 0.38% | 94.71 ± 0.28% |
| MKVSAAALAVILIATALCAPASASPYSSDTTPCCFAYIARPLPRAHIKEYFYTSGKCSNPAVVFVTRKNRQVCANPEKKWVREYINSLEMS [CCL5] | 95.946 ± 0.068% | 69.5 ± 4.5% | 94.757 ± 0.09% | 93.5 ± 1.5% | 92.85 ± 0.85% | 93.25 ± 0.49% |
| MLLRSKPALPPPLMLLLLGPLGPLSPGALPRPAQAQDVVDLDFFTQEPLHLVSPSFLSVTIDANLATDPRFLILLGSPKLRTLARGLSPAYLRFGGTKTDFLIFDPKKESTFEERSYWQSQVNQDICKYGSIPPDVEEKLRLEWPYQEQLLLREHYQKKFKNSTYSRSSVDVLYTFANCSGLDLIFGLNALLRTADLQWNSSNAQLLLDYCSSKGYNISWELGNEPNSFLKKADIFINGSQLGEDFIQLHKLLRKSTFKNAKLYGPDVGQPRRKTAKMLKSFLKAGGEVIDSVTWHHYYLNGRTATKEDFLNPDVLDIFISSVQKVFQVVESTRPGKKVWLGETSSAYGGGAPLLSDTFAAGFMWLDKLGLSARMGIEVVMRQVFFGAGNYHLVDENFDPLPDYWLSLLFKKLVGTKVLMASVQGSKRRKLRVYLHCTNTDNPRYKEGDLTLYAINLHNVTKYLRLPYPFSNKQVDKYLLRPLGPHGLLSKSVQLNGLTLKMVDDQTLPPLMEKPLRPGSSLGLPAFSYSFFVIRNAKVAACI [HPSE] | 97.15 ± 0.33% | 79.82 ± 0.76% | 96 ± 1.1% | 95.86 ± 0.27% | 90.1 ± 0.52% | 90.5 ± 1.7% |
| MLQRGLWPWRTRLLPTPGTWRPARPWPLPPPPQVLRVKLCGNVKYYQSHHYSTVVPPDEITVIYRHGLPLVTLTLPSRKERCQFVVKPMLSTVGSFLQDLQNEDKGIKTAAIFTADGNMISASTLMDILLMNDFKLVINKIAYDVQCPKREKPSNEHTAEMEHMKSLVHRLFTILHLEESQKKREHHLLEKIDHLKEQLQPLEQVKAGIEAHSEAKTSGLLWAGLALLSIQGGALAWLTWWVYSWDIMEPVTYFITFANSMVFFAYFIVTRQDYTYSAVKSRQFLQFFHKKSKQQHFDVQQYNKLKEDLAKAKESLKQARHSLCLQMQVEELNEKN [CCDC109B] | 92.6 ± 2.3% | 57.4 ± 2% | 97.29 ± 0.17% | 95.61 ± 0.13% | 95.11 ± 0.48% | 93.64 ± 0.74% |
| MLRAGAPTGDLPRAGEVHTGTTIMAVEFDGGVVMGSDSRVSAGEAVVNRVFDKLSPLHERIYCALSGSAADAQAVADMAAYQLELHGIELEEPPLVLAAANVVRNISYKYREDLSAHLMVAGWDQREGGQVYGTLGGMLTRQPFAIGGSGSTFIYGYVDAAYKPGMSPEECRRFTTDAIALAMSRDGSSGGVIYLVTITAAGVDHRVILGNELPKFYDE [PSMB9] | 80 ± 1.9% | 24.2 ± 0.77% | 90.2 ± 1.4% | 91.27 ± 0.32% | 87.59 ± 0.53% | 83.1 ± 1.6% |
| MLRGISQLPAVATMSWVLLPVLWLIVQTQAIAIKQTPELTLHEIVCPKKLHILHKREIKNNQTEKHGKEERYEPEVQYQMILNGEEIILSLQKTKHLLGPDYTETLYSPRGEEITTKPENMEHCYYKGNILNEKNSVASISTCDGLRGYFTHHHQRYQIKPLKSTDEKEHAVFTSNQEEQDPANHTCGVKSTDGKQGPIRISRSLKSPEKEDFLRAQKYIDLYLVLDNAFYKNYNENLTLIRSFVFDVMNLLNVIYNTIDVQVALVGMEIWSDGDKIKVVPSASTTFDNFLRWHSSNLGKKIHDHAQLLSGISFNNRRVGLAASNSLCSPSSVAVIEAKKKNNVALVGVMSHELGHVLGMPDVPFNTKCPSGSCVMNQYLSSKFPKDFSTSCRAHFERYLLSQKPKCLLQAPIPTNIMTTPVCGNHLLEVGEDCDCGSPKECTNLCCEALTCKLKPGTDCGGDAPNHTTE [ADAMDEC1] | 94 ± 2.1% | 66.9 ± 6.3% | 96.2 ± 0.17% | 95.52 ± 0.43% | 94.82 ± 0.19% | 94.56 ± 0.34% |
| MLTELEKALNSIIDVYHKYSLIKGNFHAVYRDDLKKLLETECPQYIRKKGADVWFKELDINTDGAVNFQEFLILVIKMGVAAHKKSHEESHKE [S100A8] | 80.1 ± 1.9% | 54.4 ± 3.1% | 91.3 ± 1.5% | 92.37 ± 0.69% | 82.1 ± 1.6% | 89.4 ± 1% |
| MMAQSKANGSHYALTAIGLGMLVLGVIMAMWNLVPGFSAAEKPTAQGSNKTEVGGGILKSKTFSVAYVLVGAGVMLLLLSICLSIRDKRKQRQGEDLAHVQHPTGAGPHAQEEDSQEEEEEDEEAASRYYVPSYEEVMNTNYSEARGEEQNPRLSISLPSYESLTGLDETTPTSTRADVEASPGNPPDRQNSKLAKRLKPLKVRRIKSEKLHLKDFRINLPDKNVPPPSIEPLTPPPQYDEVQEKAPDTRPPD [TMEM51] | 94.9 ± 1.4% | 61.1 ± 4.6% | 95.13 ± 0.15% | 94.94 ± 0.49% | 93.31 ± 0.41% | 92.77 ± 0.37% |
